According to publication PMC7277838:

Target: latency-associated peptide (LAP) of TGFβ1 (human (endogenous in human skin fibroblasts)) (UniProt P01137)

luciferase activity of mink lung TGFβ1 reporter cells given heat-treated (80 °C, 10 min) DOC-insoluble fractions of ML-II fibroblasts: 3 fold
Substance: mature TGFβ1 ligand (from UniProt P01137 279-390)
